Values quoted from earlier work, collected in article PMC3413252.

Columns and labels:
soluble IL6 receptor = soluble IL6 receptor (UniProt P08887)
surface IL6 receptor = surface IL6 receptor (UniProt P08887)

IL6, sequence (P05231 30-212): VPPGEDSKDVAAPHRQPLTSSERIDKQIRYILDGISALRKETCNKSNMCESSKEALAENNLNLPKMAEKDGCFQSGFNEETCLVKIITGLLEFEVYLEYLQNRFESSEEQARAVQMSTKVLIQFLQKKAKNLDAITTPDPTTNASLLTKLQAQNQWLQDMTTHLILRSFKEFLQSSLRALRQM

IL6 (from UniProt P05231)
Kd (soluble IL6 receptor): 30 nM | Kd (surface IL6 receptor): 0.1 nM
